Key:
[1] = target: human CDH3 (Cadherin-3, P-Cadherin) (human, UniProt P22223 108-829); test: cell-based or functional assay
human MSLN (mesothelin) = human MSLN (mesothelin) (human, UniProt Q13421 37-598); test: cell-based or functional assay
human CDH3 [2] = target: T1, human CDH3 (human, UniProt P22223 108-829); test: cell-based or functional assay
human CDH3 [3] = target: T1, human CDH3; test: cell-based or functional assay; remark: listed apart in the source
cyno MSLN = target: T2, cyno MSLN (cyno); test: cell-based affinity, flow cytometry on target-transfected CHO cells, nonlinear regression (one site - specific binding), mean of three measurements
T2 construct: whole, on cells; On transfected CHO cells; also called cy MSLN
Method: (§1) Cell-based affinity of CDH3 MSLN dual targeting antigen-binding molecules was determined by nonlinear regression (one site—specific binding) analysis. CHO cells expressing human CDH3, cyno CDH3, human MSLN or cyno MSLN were incubated with decreasing concentrations of CDH3 MSLN dual targeting antigen-binding molecules (12.5 nM on CDH3 cell lines, 800 nM on MSLN cell lines, step 1:2, 11 steps) for 16 h at 4° ° C. Bound CDH3 MSLN dual targeting antigen-binding molecules were detected with Alexa Fluor 488-conjugated AffiniPure Fab Fragment Goat Anti-Human IgG (H+L). Fixed cells were stained with DRAQ5, Far-Red Fluorescent Live-Cell Permeant DNA Dye and signals were detected by fluorescence cytometry. Respective equilibrium dissociation constant (Kd) values were calculated with the one site—specific binding evaluation tool of the GraphPad Prism software. Mean Kd values and affinity gaps were calculated with Microsoft Excel.
(§2) Cell-based affinities of CDH3 MSLN dual targeting antigen-binding molecules on target-transfected CHO cells were determined by nonlinear regression (one site - specific binding) analysis. Mean Kd values were calculated from three independent measurements. Affinity gaps were determined by dividing the cyno Kd by the human Kd.

human CDH3 [4] = target: T1, human CDH3; test: as above
Method: as §1, §2

cyno CDH3 = target: T3, cyno CDH3 (cyno); test: as above
T3 construct: whole, on cells; On transfected CHO cells; also called cy CDH3
Method: as §1, §2

Binder | cytotoxicity EC50, GSU KO MSLN cells [1] | cytotoxicity EC50, GSU KO CDH3 cells (human MSLN (mesothelin)) | EC50 on HCT 116 KO MSLN (cytotoxicity; cells CDH3+, MSLN-) (human CDH3 [2]) | EC50 on HCT 116 wt (cytotoxicity; cells CDH3+, MSLN+) (human CDH3 [2]) | EC50 (cytotoxicity) on double positive cells; column head printed 'EC50 CHO hu CDH3 (+) & MSLN (+)'; value is that of HCT 116 wt in Table 46 (human CDH3 [3]) | EC50 (cytotoxicity); column head printed 'EC50 CHO hu MSLN (+)', table title HCT 116; value is that of HCT 116 KO MSLN in Table 46 (human CDH3 [3]) | fold gap of column 2 (HCT 116 KO MSLN by Table 46) against double positive cells (human CDH3 [3]) | Kd (cyno MSLN) | Kd (human CDH3 [4]) | Kd (cyno CDH3)
MS 15-B12 CC × 6H10.09 × (G4) × heFc (A) * heFc (B) × (G4) × CH3 15-E11 CC × 6H10.09 (bispecific antibody) chain 1: not shown chain 2: DKTHTCPPCPAPELLGGPSVFLFPPKPKDTLMISRTPEVTCVVVDVSHEDPEVKFNWYVDGVEVHNAKTKPCEEQYGSTYRCVSVLTVLHQDWLNGKEYKCKVSNKALPAPIEKTISKAKGQPREPQVYTLPPSRKEMTKNQVSLTCLVKGFYPSDIAVEWESNGQPENNYKTTPPVLKSDGSFFLYSKLTVDKSRWQQGNVFSCSVMHEALHNHYTQKSLSLSPGKGGGGQVQLVQSGAEVKKPGASVKVSCKASGYTFTNYWMNWVRQAPGQCLEWMGNIAYGVKGTNYNQKFQGRVTMTVDTSSSTAYMELSRLRSDDTAVYYCATRYFYVMDYWGQGTLVTVSSGGGGSGGGGSGGGGSDIQMTQSPSSLSASVGDRVTITCRASQDISNYLNWYQQKPGKVPKLLIYYTSRLHSGVPSRFSGSGSGTDFTLTISSLQPEDVATYYCVQYAQFPLTFGCGTKVEIKSGGGGSEVQLVESGGGLVQPGGSLKLSCAASGFTFNKYAMNWVRQAPGKGMEWVARIRSKYNNYATYYADAVKDRFTISRDDSKNTLYLQMNNLKTEDTAVYYCVRAGNFGSSYISYFAYWGQGTLVTVSSGGGGSGGGGSGGGGSQTVVTQEPSLTVSPGGTVTITCGSSTGAVTSGNYPNWIQKKPGQAPRGLIGGTKFLAPGTPARFSGSLEGGKAALTLSGVQPEDEAEYYCVLYYSNRWVFGSGTKLTVL | 533 pM | 391 pM | – | – | – | – | – | – | – | –
CH3 15-E11 CC × I2L × G4 × scFc × G4 × MS 15-B12 CC × I2L_GQ (bispecific antibody, Single chain: CDH3 scFv - CD3 scFv (I2L) - scFc - MSLN scFv - CD3 scFv (I2L)) QVQLVQSGAEVKKPGASVKVSCKASGYTFTNYWMNWVRQAPGQCLEWMGNIAYGVKGTNYNQKFQGRVTMTVDTSSSTAYMELSRLRSDDTAVYYCATRYFYVMDYWGQGTLVTVSSGGGGQGGGGQGGGGQDIQMTQSPSSLSASVGDRVTITCRASQDISNYLNWYQQKPGKVPKLLIYYTSRLHSGVPSRFSGSGSGTDFTLTISSLQPEDVATYYCVQYAQFPLTFGCGTKVEIKSGGGGQEVQLVESGGGLVQPGGSLKLSCAASGFTFNKYAMNWVRQAPGKGMEWVARIRSKYNNYATYYADAVKDRFTISRDDSKNTLYLQMNNLKTEDTAVYYCVRAGNFGSSYISYFAYWGQGTLVTVSSGGGGQGGGGQGGGGQQTVVTQEPSLTVSPGGTVTITCGSSTGAVTSGNYPNWIQKKPGQAPRGLIGGTKFLAPGTPARFSGSLEGGKAALTLSGVQPEDEAEYYCVLYYSNRWVFGSGTKLTVLGGGGCPPCPAPELLGGPSVFLFPPKPKDTLMISRTPEVTCVVVDVSHEEPEVKFNWYVDGVEVHNAKTKPCEEQYGSTYRCVSVLTVLHQDWLNGKEYKCKVSNKALPAPIEKTISKAKGQPREPQVYTLPPSREEMTKNQVSLTCLVKGFYPSDIAVEWESNGQPENNYKTTPPVLDSDGSFFLYSKLTVDKSRWQQGNVFSCSVMHEALHNHYTQKSLSLSPGKGGGGQGGGGQGGGGQGGGGQGGGGQGGGGQCPPCPAPELLGGPSVFLFPPKPKDTLMISRTPEVTCVVVDVSHEEPEVKFNWYVDGVEVHNAKTKPCEEQYGSTYRCVSVLTVLHQDWLNGKEYKCKVSNKALPAPIEKTISKAKGQPREPQVYTLPPSREEMTKNQVSLTCLVKGFYPSDIAVEWESNGQPENNYKTTPPVLDSDGSFFLYSKLTVDKSRWQQGNVFSCSVMHEALHNHYTQKSLSLSPGKGGGGQVQLQESGPGLVKPSETLSLTCTVSGGSISSSSYFWGWIRQPPGKCLEWIGNIYYSGSSNYNPSLKSRVTISVDTSKNQFSLKLSSVTAADTAVYYCARLPRGDRDAFDIWGQGTMVTVSSGGGGQGGGGQGGGGQDIVMTQSPSSLSASVGDRVTITCRASQGISNYLAWYQQKPGKVPKLLIYAASTLQSGVPSRFSGSGSGTDFTLTISSLQPEDFATYYCQQSYSTPFTFGCGTKVEIKSGGGGQEVQLVESGGGLVQPGGSLKLSCAASGFTFNKYAMNWVRQAPGKGMEWVARIRSKYNNYATYYADAVKDRFTISRDDSKNTLYLQMNNLKTEDTAVYYCVRAGNFGSSYISYFAYWGQGTLVTVSSGGGGQGGGGQGGGGQQTVVTQEPSLTVSPGGTVTITCGSSTGAVTSGNYPNWIQKKPGQAPRGLIGGTKFLAPGTPARFSGSLEGGKAALTLSGVQPEDEAEYYCVLYYSNRWVFGSGTKLTVL | – | – | 8.7 pM | 0.07 pM | 0.071 pM | 8.7 pM | 122 fold | 51400 pM | 160 pM | 190 pM
CH3 15-E11_1_VAG_CC × I2L × G4 × scFc × G4 × MS 15-B12 CC × I2L clipopt_DI (bispecific antibody, Single chain) QVQLVQSGAEVKKPGASVKVSCKASGYTFTNYWMNWVRQAPGQCLEWMGNIAYGVAGTNYNQKFQGRVTMTVDTSSSTAYMELSRLRSDDTAVYYCATRYFYVMDYWGQGTLVTVSSGGGGQGGGGQGGGGQDIQMTQSPSSLSASVGDRVTITCRASQDISNYLNWYQQKPGKVPKLLIYYTSRLHSGVPSRFSGSGSGTDFTLTISSLQPEDVATYYCVQYAQFPLTFGCGTKVEIKSGGGGQEVQLVESGGGLVQPGGSLKLSCAASGFTFNKYAMNWVRQAPGKGMEWVARIRSKYNNYATYYADAVKDRFTISRDDSKNTLYLQMNNLKTEDTAVYYCVRAGNFGSSYISYFAYWGQGTLVTVSSGGGGQGGGGQGGGGQQTVVTQEPSLTVSPGGTVTITCGSSTGAVTSGNYPNWIQKKPGQAPRGLIGGTKFLAPGTPARFSGSLEGGKAALTLSGVQPEDEAEYYCVLYYSNRWVFGSGTKLTVLGGGGCPPCPAPELLGGPSVFLFPPKPKDTLMISRTPEVTCVVVDVSHEEPEVKFNWYVDGVEVHNAKTKPCEEQYGSTYRCVSVLTVLHQDWLNGKEYKCKVSNKALPAPIEKTISKAKGQPREPQVYTLPPSREEMTKNQVSLTCLVKGFYPSDIAVEWESNGQPENNYKTTPPVLDSDGSFFLYSKLTVDKSRWQQGNVFSCSVMHEALHNHYTQKSLSLSPGKGGGGQGGGGQGGGGQGGGGQGGGGQGGGGQCPPCPAPELLGGPSVFLFPPKPKDTLMISRTPEVTCVVVDVSHEEPEVKFNWYVDGVEVHNAKTKPCEEQYGSTYRCVSVLTVLHQDWLNGKEYKCKVSNKALPAPIEKTISKAKGQPREPQVYTLPPSREEMTKNQVSLTCLVKGFYPSDIAVEWESNGQPENNYKTTPPVLDSDGSFFLYSKLTVDKSRWQQGNVFSCSVMHEALHNHYTQKSLSLSPGKGGGGQVQLQESGPGLVKPSETLSLTCTVSGGSISSSSYFWGWIRQPPGKCLEWIGNIYYSGSSNYNPSLKSRVTISVDTSKNQFSLKLSSVTAADTAVYYCARLPRGDRDAFDIWGQGTMVTVSSGGGGQGGGGQGGGGQDIVMTQSPSSLSASVGDRVTITCRASQGISNYLAWYQQKPGKVPKLLIYAASTLQSGVPSRFSGSGSGTDFTLTISSLQPEDFATYYCQQSYSTPFTFGCGTKVEIKSGGGGQEVQLVESGGGLVQPGGSLKLSCAASGFTFNKYAMNWVRQAPGKGMEWVARIRSKYNNYATYYADAVKDRFTISRDDSKNTLYLQMNNLKTEDTAVYYCVRAGNFGSSYISYFAYWGQGTLVTVSSGGGGQGGGGQGGGGQQTVVTQEPSLTVSPGGTVTITCGSSTGAVTSGNYPNWIQKKPGQAPRGLIGGTKFLAPGTPARFSGSLEGGKAALTLSGVQPEDEAEYYCVLYYSNRWVFGSGTKLTVL | – | – | – | – | – | – | – | 50300 pM | 510 pM | 570 pM

From US20240209078A1 (Amgen, published 2024)
